Experimental data published in patent US20240294593A1 (Genentech, published 2024).

target: T1, human PD-1-His (human, UniProt Q15116 25-167, limits assumed); experiment: Octet
T1 construct: Antigen of the Octet assays; not shown: His tag
T1 sequence (Q15116 25-167 limits assumed): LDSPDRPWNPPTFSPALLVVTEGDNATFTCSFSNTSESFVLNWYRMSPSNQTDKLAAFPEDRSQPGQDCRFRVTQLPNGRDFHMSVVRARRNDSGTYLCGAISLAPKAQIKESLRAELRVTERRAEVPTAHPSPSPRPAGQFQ

Kd [nM]	koff [s⁻¹]	kon [M⁻¹ s⁻¹]	Binder
80.1	0.00785	98000	H1_L1.48 (antibody, V domains shown, also called VL-N37H; Kabat 31) VH: EVQLVESGGGLVQPGGSLRLSCAASGFTFSSFGMHWVRQAPGKGLEWVSYISSGSSIIYYADSVKGRFTISRDNAKNSLYLQMNSLRAEDTAVYYCARGGRLVWSPDYWGQGTLVTVSS VL: DIVMTQSPDSLAVSLGERATINCKSSQSLLNSGNQKHYLTWYQQKPGQPPKLLIYWASTRESGVPDRFTGSGSGTDFTLTISSLQAEDVAVYYCQNDYSYPFTFGSGTKLEIKR
61.1	0.00697	114000	H1_L1.49 (antibody, V domains shown, also called VL-N37E; Kabat 31) VH: EVQLVESGGGLVQPGGSLRLSCAASGFTFSSFGMHWVRQAPGKGLEWVSYISSGSSIIYYADSVKGRFTISRDNAKNSLYLQMNSLRAEDTAVYYCARGGRLVWSPDYWGQGTLVTVSS VL: DIVMTQSPDSLAVSLGERATINCKSSQSLLNSGNQKEYLTWYQQKPGQPPKLLIYWASTRESGVPDRFTGSGSGTDFTLTISSLQAEDVAVYYCQNDYSYPFTFGSGTKLEIKR

Second part, the binder before the results:

Binder	Kd [nM]	koff [s⁻¹]	kon [M⁻¹ s⁻¹]
H1_L1.47 (antibody, V domains shown, also called VL-N37D; Kabat 31) VH: EVQLVESGGGLVQPGGSLRLSCAASGFTFSSFGMHWVRQAPGKGLEWVSYISSGSSIIYYADSVKGRFTISRDNAKNSLYLQMNSLRAEDTAVYYCARGGRLVWSPDYWGQGTLVTVSS VL: DIVMTQSPDSLAVSLGERATINCKSSQSLLNSGNQKDYLTWYQQKPGQPPKLLIYWASTRESGVPDRFTGSGSGTDFTLTISSLQAEDVAVYYCQNDYSYPFTFGSGTKLEIKR	23.8	0.00353	149000
H1_L1.50 (antibody, V domains shown, also called VL-N37S; Kabat 31) VH: EVQLVESGGGLVQPGGSLRLSCAASGFTFSSFGMHWVRQAPGKGLEWVSYISSGSSIIYYADSVKGRFTISRDNAKNSLYLQMNSLRAEDTAVYYCARGGRLVWSPDYWGQGTLVTVSS VL: DIVMTQSPDSLAVSLGERATINCKSSQSLLNSGNQKSYLTWYQQKPGQPPKLLIYWASTRESGVPDRFTGSGSGTDFTLTISSLQAEDVAVYYCQNDYSYPFTFGSGTKLEIKR	42.1	0.00409	97100

target: T1, human PD-1-His; experiment: Octet [D00120 Figure 65H]
Text: In particular, anti-human IgG-Fc (AHC) biosensors were used to capture the test articles and dipped into multiple concentrations of PD-1.

Kd [nM]	koff [s⁻¹]	kon [M⁻¹ s⁻¹]	Binder
60.3	0.00348	57700	H1_L1.72 (antibody, V domains shown, also called VL-W56S; Kabat 50) VH: EVQLVESGGGLVQPGGSLRLSCAASGFTFSSFGMHWVRQAPGKGLEWVSYISSGSSIIYYADSVKGRFTISRDNAKNSLYLQMNSLRAEDTAVYYCARGGRLVWSPDYWGQGTLVTVSS VL: DIVMTQSPDSLAVSLGERATINCKSSQSLLNSGNQKNYLTWYQQKPGQPPKLLIYSASTRESGVPDRFTGSGSGTDFTLTISSLQAEDVAVYYCQNDYSYPFTFGSGTKLEIKR
35.3	0.00339	96200	H1_L1.66 (antibody, V domains shown, also called VL-W56F; Kabat 50) VH: EVQLVESGGGLVQPGGSLRLSCAASGFTFSSFGMHWVRQAPGKGLEWVSYISSGSSIIYYADSVKGRFTISRDNAKNSLYLQMNSLRAEDTAVYYCARGGRLVWSPDYWGQGTLVTVSS VL: DIVMTQSPDSLAVSLGERATINCKSSQSLLNSGNQKNYLTWYQQKPGQPPKLLIYFASTRESGVPDRFTGSGSGTDFTLTISSLQAEDVAVYYCQNDYSYPFTFGSGTKLEIKR
25.9	0.00244	94400	H1_L1.69 (antibody, V domains shown, also called VL-W56I; Kabat 50) VH: EVQLVESGGGLVQPGGSLRLSCAASGFTFSSFGMHWVRQAPGKGLEWVSYISSGSSIIYYADSVKGRFTISRDNAKNSLYLQMNSLRAEDTAVYYCARGGRLVWSPDYWGQGTLVTVSS VL: DIVMTQSPDSLAVSLGERATINCKSSQSLLNSGNQKNYLTWYQQKPGQPPKLLIYIASTRESGVPDRFTGSGSGTDFTLTISSLQAEDVAVYYCQNDYSYPFTFGSGTKLEIKR

Continued, binder first:

Binder	Kd [nM]	koff [s⁻¹]	kon [M⁻¹ s⁻¹]
H1_L1.73 (antibody, V domains shown, also called VL-W56D; Kabat 50) VH: EVQLVESGGGLVQPGGSLRLSCAASGFTFSSFGMHWVRQAPGKGLEWVSYISSGSSIIYYADSVKGRFTISRDNAKNSLYLQMNSLRAEDTAVYYCARGGRLVWSPDYWGQGTLVTVSS VL: DIVMTQSPDSLAVSLGERATINCKSSQSLLNSGNQKNYLTWYQQKPGQPPKLLIYDASTRESGVPDRFTGSGSGTDFTLTISSLQAEDVAVYYCQNDYSYPFTFGSGTKLEIKR	51.6	0.00455	88100
H1_L1.65 (antibody, V domains shown, also called VL-T40A; Kabat 34) VH: EVQLVESGGGLVQPGGSLRLSCAASGFTFSSFGMHWVRQAPGKGLEWVSYISSGSSIIYYADSVKGRFTISRDNAKNSLYLQMNSLRAEDTAVYYCARGGRLVWSPDYWGQGTLVTVSS VL: DIVMTQSPDSLAVSLGERATINCKSSQSLLNSGNQKNYLAWYQQKPGQPPKLLIYWASTRESGVPDRFTGSGSGTDFTLTISSLQAEDVAVYYCQNDYSYPFTFGSGTKLEIKR	98	0.00949	96800
H1_L1.67 (antibody, V domains shown, also called VL-W56L; Kabat 50) VH: EVQLVESGGGLVQPGGSLRLSCAASGFTFSSFGMHWVRQAPGKGLEWVSYISSGSSIIYYADSVKGRFTISRDNAKNSLYLQMNSLRAEDTAVYYCARGGRLVWSPDYWGQGTLVTVSS VL: DIVMTQSPDSLAVSLGERATINCKSSQSLLNSGNQKNYLTWYQQKPGQPPKLLIYLASTRESGVPDRFTGSGSGTDFTLTISSLQAEDVAVYYCQNDYSYPFTFGSGTKLEIKR	41.6	0.00418	100000
H1_L1.70 (antibody, V domains shown, also called VL-W56H; Kabat 50) VH: EVQLVESGGGLVQPGGSLRLSCAASGFTFSSFGMHWVRQAPGKGLEWVSYISSGSSIIYYADSVKGRFTISRDNAKNSLYLQMNSLRAEDTAVYYCARGGRLVWSPDYWGQGTLVTVSS VL: DIVMTQSPDSLAVSLGERATINCKSSQSLLNSGNQKNYLTWYQQKPGQPPKLLIYHASTRESGVPDRFTGSGSGTDFTLTISSLQAEDVAVYYCQNDYSYPFTFGSGTKLEIKR	30.9	0.00281	90700
H1_L1.74 (antibody, V domains shown, also called VL-W56R; Kabat 50) VH: EVQLVESGGGLVQPGGSLRLSCAASGFTFSSFGMHWVRQAPGKGLEWVSYISSGSSIIYYADSVKGRFTISRDNAKNSLYLQMNSLRAEDTAVYYCARGGRLVWSPDYWGQGTLVTVSS VL: DIVMTQSPDSLAVSLGERATINCKSSQSLLNSGNQKNYLTWYQQKPGQPPKLLIYRASTRESGVPDRFTGSGSGTDFTLTISSLQAEDVAVYYCQNDYSYPFTFGSGTKLEIKR	265	0.0244	92300
H1_L1.71 (antibody, V domains shown, also called VL-W56Q; Kabat 50) VH: EVQLVESGGGLVQPGGSLRLSCAASGFTFSSFGMHWVRQAPGKGLEWVSYISSGSSIIYYADSVKGRFTISRDNAKNSLYLQMNSLRAEDTAVYYCARGGRLVWSPDYWGQGTLVTVSS VL: DIVMTQSPDSLAVSLGERATINCKSSQSLLNSGNQKNYLTWYQQKPGQPPKLLIYQASTRESGVPDRFTGSGSGTDFTLTISSLQAEDVAVYYCQNDYSYPFTFGSGTKLEIKR	47.1	0.0043	91400
H1_L1.68 (antibody, V domains shown, also called VL-W56Y; Kabat 50) VH: EVQLVESGGGLVQPGGSLRLSCAASGFTFSSFGMHWVRQAPGKGLEWVSYISSGSSIIYYADSVKGRFTISRDNAKNSLYLQMNSLRAEDTAVYYCARGGRLVWSPDYWGQGTLVTVSS VL: DIVMTQSPDSLAVSLGERATINCKSSQSLLNSGNQKNYLTWYQQKPGQPPKLLIYYASTRESGVPDRFTGSGSGTDFTLTISSLQAEDVAVYYCQNDYSYPFTFGSGTKLEIKR	178	0.0166	92900
